Laboratory results reported in patent publication US20220144960A1 (NANJING LEGEND BIOTECH, published 2022).
Where two headings read alike, the source gives them in different places.

B1: AS47863bbz CAR (other)
chain: QVQLEESGGGSVQAGETLRLSCTASGSTFGDSDMGWYRQAPGNACELVSIISSDGRTYYVDSVKGRFTISQDNAVSTVYLQMNSLKPEDTGVYYCAADLRQYCRDGRCCGYWGQGTQVTVSSTTTPAPRPPTPAPTIASQPLSLRPEACRPAAGGAVHTRGLDFACDIYIWAPLAGTCGVLLLSLVITLYCKRGRKKLLYIFKQPFMRPVQTTQEEDGCSCRFPEEEEGGCELRVKFSRSADAPAYKQGQNQLYNELNLGRREEYDVLDKRRGRDPEMGGKPRRKNPQEGLYNELQKDKMAEAYSEIGMKGERRRGKGHDGLYQGLSTATKDTYDALHMQALPPR
B2: AS48433bbz CAR (other)
chain: QIQLVESGGGSVQAGETLRLSCTASGSTFGDSDMGWYRQAPGNACELVSIISSDGRTYYVDSVKGRFTISQDNAVSTVYLQMNSLNPEDTGVYYCAADLRLNCRDGRCCGYWGQGTQVTVSSTTTPAPRPPTPAPTIASQPLSLRPEACRPAAGGAVHTRGLDFACDIYIWAPLAGTCGVLLLSLVITLYCKRGRKKLLYIFKQPFMRPVQTTQEEDGCSCRFPEEEEGGCELRVKFSRSADAPAYKQGQNQLYNELNLGRREEYDVLDKRRGRDPEMGGKPRRKNPQEGLYNELQKDKMAEAYSEIGMKGERRRGKGHDGLYQGLSTATKDTYDALHMQALPPR
B3: AS53445bbz CAR (other)
chain: QVQLVESGGGSVQAGGSLRLSCTASGYIFCMGWFRQAPGKAREGIATIYTGGDSTYYDDSVKGRFTISRDNAKNTVYLQMNSLKPEDTAMYYCAAGGQECYLTNWVSYWGQGTQVTVSSTTTPAPRPPTPAPTIASQPLSLRPEACRPAAGGAVHTRGLDFACDIYIWAPLAGTCGVLLLSLVITLYCKRGRKKLLYIFKQPFMRPVQTTQEEDGCSCRFPEEEEGGCELRVKFSRSADAPAYKQGQNQLYNELNLGRREEYDVLDKRRGRDPEMGGKPRRKNPQEGLYNELQKDKMAEAYSEIGMKGERRRGKGHDGLYQGLSTATKDTYDALHMQALPPR
B4: AS48481bbz CAR (other)
chain: EVQLVASGGGSVQAGETLRLSCTASGFTFADSAMGWYRKGPGNVCDLVAIIRTDGTTYYGDSAKGRFTISRDNAKSTLYLQMNSLKPEDTAVYFCAADRETSFIGGSWCVAKYWDQGTQVTVSSTTTPAPRPPTPAPTIASQPLSLRPEACRPAAGGAVHTRGLDFACDIYIWAPLAGTCGVLLLSLVITLYCKRGRKKLLYIFKQPFMRPVQTTQEEDGCSCRFPEEEEGGCELRVKFSRSADAPAYKQGQNQLYNELNLGRREEYDVLDKRRGRDPEMGGKPRRKNPQEGLYNELQKDKMAEAYSEIGMKGERRRGKGHDGLYQGLSTATKDTYDALHMQALPPR
B5: AS57911bbz CAR (other)
chain: DIQMTQSPSSLSASVGDRVTITCRASQSVSSAVAWYQQKPGKAPKLLIYSASSLYSGVPSRFSGSRSGTDFTLTISSLQPEDFATYYCQQSHALITFGQGTKVEIKGGGGSGGGGSGGGGSEVQLVESGGGLVQPGGSLRLSCAASGFNISSSYIHWVRQAPGKGLEWVAYISSYYSYTYYADSVKGRFTISADTSKNTAYLQMNSLRAEDTAVYYCARGYPYGMDYWGQGTLVTVSSTTTPAPRPPTPAPTIASQPLSLRPEACRPAAGGAVHTRGLDFACDIYIWAPLAGTCGVLLLSLVITLYCKRGRKKLLYIFKQPFMRPVQTTQEEDGCSCRFPEEEEGGCELRVKFSRSADAPAYKQGQNQLYNELNLGRREEYDVLDKRRGRDPEMGGKPRRKNPQEGLYNELQKDKMAEAYSEIGMKGERRRGKGHDGLYQGLSTATKDTYDALHMQALPPR
B6: AS48463bbz CAR (other)
chain: QVHLMESGGGSVQAGETLRLSCTASGFTFANSDMGWYRQAPGNACELVSIISSHGGTTYYVDSVKGRFTISRHNAENTVYLRMTSLKPEDTALYYCVADPRSNCRGGYCCGYWGPGTQVTVSSTTTPAPRPPTPAPTIASQPLSLRPEACRPAAGGAVHTRGLDFACDIYIWAPLAGTCGVLLLSLVITLYCKRGRKKLLYIFKQPFMRPVQTTQEEDGCSCRFPEEEEGGCELRVKFSRSADAPAYKQGQNQLYNELNLGRREEYDVLDKRRGRDPEMGGKPRRKNPQEGLYNELQKDKMAEAYSEIGMKGERRRGKGHDGLYQGLSTATKDTYDALHMQALPPR
B7: AS57659bbz CAR (other)
chain: DIQMTQSPSSLSASVGDRVTITCRASQSVSSAVAWYQQKPGKAPKLLIYSASSLYSGVPSRFSGSRSGTDFTLTISSLQPEDFATYYCQQPYYLITFGQGTKVEIKGGGGSGGGGSGGGGSEVQLVESGGGLVQPGGSLRLSCAASGFNIYSYYIHWVRQAPGKGLEWVASIYSSYSSTYYADSVKGRFTISADTSKNTAYLQMNSLRAEDTAVYYCARSWFSYPGLDYWGQGTLVTVSSTTTPAPRPPTPAPTIASQPLSLRPEACRPAAGGAVHTRGLDFACDIYIWAPLAGTCGVLLLSLVITLYCKRGRKKLLYIFKQPFMRPVQTTQEEDGCSCRFPEEEEGGCELRVKFSRSADAPAYKQGQNQLYNELNLGRREEYDVLDKRRGRDPEMGGKPRRKNPQEGLYNELQKDKMAEAYSEIGMKGERRRGKGHDGLYQGLSTATKDTYDALHMQALPPR
B8: 5F11bbz CAR (other)
chain: DIQMTQSPTSLSASVGDRVTITCRASQGISSWLTWYQQKPEKAPKSLIYAASSLQSGVPSRFSGSGSGTDFTLTISSLQPEDFATYYCQQYDSYPITFGQGTRLEIKGSTSGSGKPGSGEGSTKGQVQLQQWGAGLLKPSETLSLTCAVYGGSFSAYYWSWIRQPPGKGLEWIGDINHGGGTNYNPSLKSRVTISVDTSKNQFSLKLNSVTAADTAVYYCASLTAYWGQGSLVTVSSTTTPAPRPPTPAPTIASQPLSLRPEACRPAAGGAVHTRGLDFACDIYIWAPLAGTCGVLLLSLVITLYCKRGRKKLLYIFKQPFMRPVQTTQEEDGCSCRFPEEEEGGCELRVKFSRSADAPAYKQGQNQLYNELNLGRREEYDVLDKRRGRDPEMGGKPRRKNPQEGLYNELQKDKMAEAYSEIGMKGERRRGKGHDGLYQGLSTATKDTYDALHMQALPPR
B9: AS47863VH4bbz CAR (other)
chain: EVQLVESGGGLVQPGGSLRLSCAASGSTFGDSDMGWYRQAPGKGCELVSIISSDGRTYYVDSVKGRFTISQDNSKNTLYLQMNSLRAEDTAVYYCAADLRQYCRDGRCCGYWGQGTLVTVSSTTTPAPRPPTPAPTIASQPLSLRPEACRPAAGGAVHTRGLDFACDIYIWAPLAGTCGVLLLSLVITLYCKRGRKKLLYIFKQPFMRPVQTTQEEDGCSCRFPEEEEGGCELRVKFSRSADAPAYKQGQNQLYNELNLGRREEYDVLDKRRGRDPEMGGKPRRKNPQEGLYNELQKDKMAEAYSEIGMKGERRRGKGHDGLYQGLSTATKDTYDALHMQALPPR
B10: AS48463VH4bbz CAR (other)
chain: EVQLLESGGGLVQPGGSLRLSCAASGFTFANSDMGWYRQAPGKGCELVSIISSHGGTTYYVDSVKGRFTISRDNSKNTLYLQMNSLRAEDTAVYYCVADPRSNCRGGYCCGYWGQGTLVTVSSTTTPAPRPPTPAPTIASQPLSLRPEACRPAAGGAVHTRGLDFACDIYIWAPLAGTCGVLLLSLVITLYCKRGRKKLLYIFKQPFMRPVQTTQEEDGCSCRFPEEEEGGCELRVKFSRSADAPAYKQGQNQLYNELNLGRREEYDVLDKRRGRDPEMGGKPRRKNPQEGLYNELQKDKMAEAYSEIGMKGERRRGKGHDGLYQGLSTATKDTYDALHMQALPPR
B11: AS48542VH5bbz CAR (other)
chain: EVQLVESGGGLVQPGGSLRLSCATSAFTFDGPDMAWYRQAPGKGCELVSIISADGRTYYADSVKGRFTISRDNSKNTVYLQMNSLRAEDTAVYYCALDPRKNCRGGYCCANWGQGTLVTVSSTTTPAPRPPTPAPTIASQPLSLRPEACRPAAGGAVHTRGLDFACDIYIWAPLAGTCGVLLLSLVITLYCKRGRKKLLYIFKQPFMRPVQTTQEEDGCSCRFPEEEEGGCELRVKFSRSADAPAYKQGQNQLYNELNLGRREEYDVLDKRRGRDPEMGGKPRRKNPQEGLYNELQKDKMAEAYSEIGMKGERRRGKGHDGLYQGLSTATKDTYDALHMQALPPR

Tests used:
Experiment in all cases: cell-based or functional assay
[1] = molecular target: T1, CD30 on CD30-expressing tumor cell lines (HH, MJ, H9) (UniProt P28908 19-595)
T1 sequence (looked up): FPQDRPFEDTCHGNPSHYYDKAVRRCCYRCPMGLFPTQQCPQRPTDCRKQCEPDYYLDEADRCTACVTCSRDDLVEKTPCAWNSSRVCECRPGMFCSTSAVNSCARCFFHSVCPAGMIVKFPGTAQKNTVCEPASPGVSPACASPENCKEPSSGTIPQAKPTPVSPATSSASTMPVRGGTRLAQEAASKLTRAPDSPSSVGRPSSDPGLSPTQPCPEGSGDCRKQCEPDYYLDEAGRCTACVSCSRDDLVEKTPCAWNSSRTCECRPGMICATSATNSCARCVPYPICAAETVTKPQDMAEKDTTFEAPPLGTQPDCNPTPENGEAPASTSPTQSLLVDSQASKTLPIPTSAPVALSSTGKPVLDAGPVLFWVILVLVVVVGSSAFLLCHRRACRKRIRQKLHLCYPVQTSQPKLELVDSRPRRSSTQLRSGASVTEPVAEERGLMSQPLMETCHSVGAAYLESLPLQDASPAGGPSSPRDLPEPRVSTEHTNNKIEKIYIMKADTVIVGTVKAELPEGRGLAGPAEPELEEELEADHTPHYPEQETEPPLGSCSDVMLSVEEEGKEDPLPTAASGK

[2] = molecular target: T1, CD30 on CD30-expressing tumor cell …; remark: listed apart in the source
[3] = molecular target: T1, CD30 on CD30-expressing tumor cell …; remark: listed apart in the source
[4] = molecular target: T1, CD30 on CD30-expressing tumor cell …; remark: listed apart in the source

Binder | % MJ cell lysis E:T = 0.5:1 (LDH assay, CAR T cells) [1] [%] | % H9 cell lysis E:T = 2:1 (LDH assay, CAR T cells) [2] [%] | % MJ cell lysis E:T = 1:1 (LDH assay, CAR T cells) [2] [%] | further results
B1 | 65 | – | – | –
B2 | 50.5 | – | – | –
B3 | 24.6 | – | – | –
B4 | 45.1 | – | – | –
B5 | 43.9 | – | – | –
B6 | 60.8 | – | – | –
B7 | 42 | – | – | –
B8 | 29.9 | 45 | 41 | % H9 cell lysis E:T = 0.2:1 (FACS method, CAR T cells) [3]: 16%; % MJ cell lysis E:T = 0.2:1 (FACS method, CAR T cells) [3]: 2.3%; % H9 cell lysis E:T = 2:1 (LDH assay, CAR T cells) [4]: 45%; % MJ cell lysis E:T = 1:1 (LDH assay, CAR T cells) [4]: 41%
B9 | – | 63 | 57 | –
B10 | – | 64 | 67 | –
B11 | – | 62 | 65 | % H9 cell lysis E:T = 0.2:1 (FACS method, CAR T cells) [3]: 38%; % MJ cell lysis E:T = 0.2:1 (FACS method, CAR T cells) [3]: 58.6%; % H9 cell lysis E:T = 2:1 (LDH assay, CAR T cells) [4]: 62%; % MJ cell lysis E:T = 1:1 (LDH assay, CAR T cells) [4]: 65%
